In experiment [1] the target is T1, CD94/NKG2A on cells (Ba/F3-CD94/NKG2A; NKL cells) (human, UniProt Q13241 1-179).
T1 construct: whole, on cells
The experiment is described as follows: flow cytometry on Ba/F3-CD94/NKG2A cells, no HLA-E tetramer pre-incubation, APC-conjugated secondary antibody. As to the method: To test whether humZ270VL1/VH1 prevents ligand (i.e. HLA-E) binding to CD94/NKG2A, we analyzed whether humZ270 could prevent the binding of HLA-E tetramers to CD94/NKG2A over-expressing Ba/F3 cells (Ba/F3-CD94/NKG2A). For this, Ba/F3-CD94/NKG2A were incubated with 1) various concentrations of humZ270 or 2) first incubated with a saturing concentration of HLA-E tetramers (4.7 μg/ml) and then incubated with various concentrations of humZ270. All incubations were performed in tissue-culture medium containing 2% FCS, on ice. Subsequently, cells were incubated with APC-conjugated secondary antibodies specific for mouse Ab's, and analyzed by flow cytometry using a BD Biosciences FACSarray.

For experiment [2], the target named is single-chain NKG2A-CD94-mFc construct (human) (UniProt Q13241). Briefly: SPR (Biacore T100); sc-NKG2A-CD94-mFc amine-coupled to CM5 chip, antibody 0.157-2.5 nM as analyte. (Surface plasmon resonance follows binding to a sensor surface in real time, without labels.)
The target in experiment [3] is T1, CD94/NKG2A on cells (Ba/F3-CD94/NKG2A; …). The experiment is described as follows: flow cytometry on Ba/F3-CD94/NKG2A cells, APC-conjugated secondary antibody specific for human antibodies. As to the method: The specificity and efficacy of humZ270VL1/VH1, and various humZ270VL1/VH1 variants with back-mutations in the variable light (VL) or variable heavy (VH) regions were tested for binding to CD94/NKG2A in flow-cytometry. For this, Ba/F3-CD94/NKG2A cells were incubated with humZ270-L46F (VL), humZ270-148V (VL), humZ270-L46F/148V (VL), humZ270-V5Q (VH), humZ270-M69L (VH), humZ270-T71V (VH), humZ270-T73K (VH), humZ270-T75S (VH), humZ270-V5Q/M69L/T71V/T73K/T75S (VH), humZ270-M69L/T71V/T73K/T75S (VH) or two different batches of humZ270VL1/VH1 without back-mutations (“DK” and “CHN”). For this purpose, Ba/F3-CD94/NKG2A or -C cells were incubated with various concentrations of the humZ270 variants in tissue-culture medium containing 2% FCS, for at least 30 minutes on ice. The cells were then washed, and incubated in similar medium with APC conjugated secondary antibodies specific for human antibodies, again for at least 30 minutes on ice. After two times washing with ice-cold PBS, the binding of secondary antibodies to cells was visualized using a BD Biosciences FACSarray.
On the technique in general: A flow cytometer gives signals particle by particle.

The target is the same in experiment [4]. Briefly: flow cytometry on Ba/F3-CD94/NKG2A cells, APC-conjugated secondary antibody. As to the method: The strength and specificity of humZ270 binding to CD94/NKG2A was tested in flow-cytometry, by analyzing the binding of in HEK293 cells produced wild-type Z270 (recZ270), chimeric Z270 with human IgG4 (chimZ270) or humanized Z270 (humZ270VL1/VH1) to Ba/F3 cells stably over-expressing either CD94/NKG2A or CD94/NKG2C. For this purpose, Ba/F3-CD94/NKG2A and -C cells were incubated with various concentrations of Z270 variants in tissue-culture medium containing 2% FCS, for at least 30 minutes on ice. Subsequently cells were washed, and the cells incubated in similar medium with APC conjugated secondary Ab's, again for at least 30 minutes on ice. After two times washing with ice-cold PBS, the binding of mAb's to cells was visualized using a BD Biosciences FACSarray.

Experiment [5] concerns the target single-chain NKG2A-CD94-mFc construct (human) (UniProt Q13241). The experiment is described as follows: SPR (Biacore T100); sc-NKG2A-CD94-mFc on CM5 chip, mutant at 0.75 nM or 1.5 nM.

Where “and” joins values, the source holds several entries; their conditions need not be identical. Identical values can stand only once.

T1 sequence (chain, as listed by the source limits assumed, chain 1 of 2): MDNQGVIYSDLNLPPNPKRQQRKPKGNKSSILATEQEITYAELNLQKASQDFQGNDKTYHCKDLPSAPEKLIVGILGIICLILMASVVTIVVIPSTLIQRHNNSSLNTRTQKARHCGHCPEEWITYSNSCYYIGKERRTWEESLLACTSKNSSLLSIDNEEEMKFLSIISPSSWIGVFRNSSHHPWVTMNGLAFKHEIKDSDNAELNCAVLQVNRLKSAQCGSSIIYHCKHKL
T1 sequence (Q13241 whole entry, chain 2 of 2): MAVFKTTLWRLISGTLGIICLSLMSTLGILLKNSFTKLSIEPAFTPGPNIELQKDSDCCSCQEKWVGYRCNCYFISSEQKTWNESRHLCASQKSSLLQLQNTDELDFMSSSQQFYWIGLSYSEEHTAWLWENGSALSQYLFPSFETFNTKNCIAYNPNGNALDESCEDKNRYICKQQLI

B1: humZ270VL1/VH1 (antibody, human IgG4, V domains shown)
VH: QVQLVQSGAEVKKPGASVKVSCKASGYTFTSYWMNWVRQAPGQGLEWMGRIDPYDSETHYAQKLQGRVTMTTDTSTSTAYMELRSLRSDDTAVYYCARGGYDFDVGTLYWFFDVWGQGTTVTVS
VL: DIQMTQSPSSLSASVGDRVTITCRASENIYSYLAWYQQKPGKAPKLLIYNAKTLAEGVPSRFSGSGSGTDFTLTISSLQPEDFATYYCQHHYGTPRTFGGGTKVEIK
notes: No back-mutations; also called hZ270VL1/VH1; huZ270 with a humZ270VH1 heavy chain
Usually EC50 (read off the curve) stands for the concentration at which the effect is half-maximal. Read a high EC50 (read off the curve) as a less potent agent. For orientation: Kd means the equilibrium constant for the complex coming apart. A higher Kd goes with a looser complex. Usually koff stands for a measure of how fast the partners let go of each other. The low end stands for a long-lived complex, the high end for a short-lived complex. The term kon denotes a measure of how fast the partners come together. Low readings indicate slow association, high ones fast association. For the molecule B1, the “EC50 (read off the curve)” value in experiment [1] was about 30 ng/mL. In experiment [2], this molecule yielded a Kd of 0.0665 nM, a koff of 0.000498 s⁻¹ and a kon of 7.49e+06 M⁻¹ s⁻¹. For the same molecule, the “EC50 (read off the curve)” value in experiment [3] was ~10 ng/mL and ~8 ng/mL.

B2: chimeric Z270 antibody (antibody, human IgG4, V domains shown)
VH: QVQLQQPGAELVRPGASVKLSCKASGYTFTSYWMNWVKQRPEQGLQWIGRIDPYDSETHYSQKFKDKAILTVDKSSSTAYMRLSSLTSEDSAVYYCARGGYDFDVGTLYWFFDVWGAGTTVTVS
VL: DIQMTQSPASLSASVGETVTITCRASENIYSYLAWYQQKQGKSPQFLVYNAKTLAEGVPSRFSGSGSGTQFSLKINSLQPEDFGSYYCQHHYGTPRTFGGGTKLEIK
Take B2: in experiment [2], the Kd stood at 0.0498 nM, the koff is 0.000397 s⁻¹ and the kon amounted to 7.97e+06 M⁻¹ s⁻¹.

B3: wild-type Z270 produced in HEK293 cells (recZ270) (antibody, mouse IgG1, V domains shown)
VH: QVQLQQPGAELVRPGASVKLSCKASGYTFTSYWMNWVKQRPEQGLQWIGRIDPYDSETHYSQKFKDKAILTVDKSSSTAYMRLSSLTSEDSAVYYCARGGYDFDVGTLYWFFDVWGAGTTVTVS
VL: DIQMTQSPASLSASVGETVTITCRASENIYSYLAWYQQKQGKSPQFLVYNAKTLAEGVPSRFSGSGSGTQFSLKINSLQPEDFGSYYCQHHYGTPRTFGGGTKLEIK
notes: also called recombinant Z270
As to B3, the “EC50 (read off the curve)” value in experiment [4] is about 1 ng/mL.

B4: Z270VH alanine mutant R94A (antibody, name in Kabat numbering, V domains shown)
VH: QVQLQQPGAELVRPGASVKLSCKASGYTFTSYWMNWVKQRPEQGLQWIGRIDPYDSETHYSQKFKDKAILTVDKSSSTAYMRLSSLTSEDSAVYYCAAGGYDFDVGTLYWFFDVWGAGTTVTVS
VL: DIQMTQSPASLSASVGETVTITCRASENIYSYLAWYQQKQGKSPQFLVYNAKTLAEGVPSRFSGSGSGTQFSLKINSLQPEDFGSYYCQHHYGTPRTFGGGTKLEIK
B4 yielded a relative binding (binding level in RU divided by that of chimZ270) in experiment [5] of 20%.

These data come from patent US20170281809A1 (Novo Nordisk, published 2017).
